{"source": "paper PMC5787919", "about": "“A feedback regulatory model for RifQ-mediated repression of rifamycin export in Amycolatopsis mediterranei” (Microbial Cell Factories, 2018)", "proteins": {"B1": {"name": "RifQ, TetR-family transcriptional regulator of Amycolatopsis mediterranei S699 (natural protein, UniProt O52558 1-242, looked up)", "chain": "MGKRASQPRESVWLSPRPARKHRAGESELDREKIVATAVRVLDAEGDAKFSMRLLAEELNVTPMSVYWYVANKDDLLELALDAVAGEIELPSLDDGNDWREDLRALARAWRRTMVAHPWAIRCYGEYLNIGPSSLRFTECAQAVMACSPLPLKDRSAALNVVFQYVYGFTATESRWLEHLAETGRTAEEFAAEVTGSMAAMSSTLEQGGLLERDGDQSMEQLRDRDFDRGLNWLFTGMVAGG", "notes": "RifQ, TetR-family regulator encoded in the rifamycin biosynthetic (rif) cluster of Amycolatopsis mediterranei S699; Cloning between NdeI and XhoI of pET22b would usually give a C-terminal His6 tag (surmised); also called His-tagged RifQ; recombinant RifQ; source: E. coli BL21(DE3), pET22b-RifQ, purified (Ni-NTA gravity column)"}}, "target": "the molecule itself", "assay": "SEC; gel filtration on Superdex 75, calibrated with the Low Molecular Weight kit (aprotinin 6.5 KD, ribonuclease A 14 KD, ovalbumin 44 KD; Blue Dextran 2000 for the void); molecular weight calculated from the retention time"}
{"protein": "B1", "values": [{"measurement": "stoichiometry N", "result": 2}]}
